Reference: patent publication US20230365662A1
Values joined by “and” are separate entries in the source; they are usually repeats but may differ in a detail not shown here. Identical values can stand only once.

B1: KB001 mouse Fab VL T24M (Fab, V domains shown)
VH: EVQLKQSGPGLVAPSQSLSITCTVSGFSLSIYSVHWVRQPPGKGLEWLGMIWGGGSSDYNSALKSRLSISKDNSKSQVFLKMNSLQTDDTAMYYCARNGNFYAMDYWGQGTSVTVSS
VL: QIVLTQSPAIMSASLGERVTMTCMASSSVSSSFLHWYQQKPGSSPQLWIYSTSNLASGVPARFSGSGSGTSYSLTISSMEAEDAATYYCHQYHHSPYIYTFGGGTKLEIK
B2: KB001 mouse Fab VL T24E (Fab, V domains shown)
VH: EVQLKQSGPGLVAPSQSLSITCTVSGFSLSIYSVHWVRQPPGKGLEWLGMIWGGGSSDYNSALKSRLSISKDNSKSQVFLKMNSLQTDDTAMYYCARNGNFYAMDYWGQGTSVTVSS
VL: QIVLTQSPAIMSASLGERVTMTCEASSSVSSSFLHWYQQKPGSSPQLWIYSTSNLASGVPARFSGSGSGTSYSLTISSMEAEDAATYYCHQYHHSPYIYTFGGGTKLEIK
B3: KB001 mouse Fab VL S27K (Fab, V domains shown)
VH: EVQLKQSGPGLVAPSQSLSITCTVSGFSLSIYSVHWVRQPPGKGLEWLGMIWGGGSSDYNSALKSRLSISKDNSKSQVFLKMNSLQTDDTAMYYCARNGNFYAMDYWGQGTSVTVSS
VL: QIVLTQSPAIMSASLGERVTMTCTASKSVSSSFLHWYQQKPGSSPQLWIYSTSNLASGVPARFSGSGSGTSYSLTISSMEAEDAATYYCHQYHHSPYIYTFGGGTKLEIK
B4: KB001 mouse Fab VL T24H (Fab, V domains shown)
VH: EVQLKQSGPGLVAPSQSLSITCTVSGFSLSIYSVHWVRQPPGKGLEWLGMIWGGGSSDYNSALKSRLSISKDNSKSQVFLKMNSLQTDDTAMYYCARNGNFYAMDYWGQGTSVTVSS
VL: QIVLTQSPAIMSASLGERVTMTCHASSSVSSSFLHWYQQKPGSSPQLWIYSTSNLASGVPARFSGSGSGTSYSLTISSMEAEDAATYYCHQYHHSPYIYTFGGGTKLEIK
B5: KB001 mouse Fab VL S28K (Fab, V domains shown)
VH: EVQLKQSGPGLVAPSQSLSITCTVSGFSLSIYSVHWVRQPPGKGLEWLGMIWGGGSSDYNSALKSRLSISKDNSKSQVFLKMNSLQTDDTAMYYCARNGNFYAMDYWGQGTSVTVSS
VL: QIVLTQSPAIMSASLGERVTMTCTASSKVSSSFLHWYQQKPGSSPQLWIYSTSNLASGVPARFSGSGSGTSYSLTISSMEAEDAATYYCHQYHHSPYIYTFGGGTKLEIK
B6: KB001 mouse Fab VL A25F (Fab, V domains shown)
VH: EVQLKQSGPGLVAPSQSLSITCTVSGFSLSIYSVHWVRQPPGKGLEWLGMIWGGGSSDYNSALKSRLSISKDNSKSQVFLKMNSLQTDDTAMYYCARNGNFYAMDYWGQGTSVTVSS
VL: QIVLTQSPAIMSASLGERVTMTCTFSSSVSSSFLHWYQQKPGSSPQLWIYSTSNLASGVPARFSGSGSGTSYSLTISSMEAEDAATYYCHQYHHSPYIYTFGGGTKLEIK
B7: KB001 mouse Fab VL S30F (Fab, V domains shown)
VH: EVQLKQSGPGLVAPSQSLSITCTVSGFSLSIYSVHWVRQPPGKGLEWLGMIWGGGSSDYNSALKSRLSISKDNSKSQVFLKMNSLQTDDTAMYYCARNGNFYAMDYWGQGTSVTVSS
VL: QIVLTQSPAIMSASLGERVTMTCTASSSVFSSFLHWYQQKPGSSPQLWIYSTSNLASGVPARFSGSGSGTSYSLTISSMEAEDAATYYCHQYHHSPYIYTFGGGTKLEIK
B8: KB001 mouse Fab VL T24K (Fab, V domains shown)
VH: EVQLKQSGPGLVAPSQSLSITCTVSGFSLSIYSVHWVRQPPGKGLEWLGMIWGGGSSDYNSALKSRLSISKDNSKSQVFLKMNSLQTDDTAMYYCARNGNFYAMDYWGQGTSVTVSS
VL: QIVLTQSPAIMSASLGERVTMTCKASSSVSSSFLHWYQQKPGSSPQLWIYSTSNLASGVPARFSGSGSGTSYSLTISSMEAEDAATYYCHQYHHSPYIYTFGGGTKLEIK
B9: KB001 mouse Fab VL S28V (Fab, V domains shown)
VH: EVQLKQSGPGLVAPSQSLSITCTVSGFSLSIYSVHWVRQPPGKGLEWLGMIWGGGSSDYNSALKSRLSISKDNSKSQVFLKMNSLQTDDTAMYYCARNGNFYAMDYWGQGTSVTVSS
VL: QIVLTQSPAIMSASLGERVTMTCTASSVVSSSFLHWYQQKPGSSPQLWIYSTSNLASGVPARFSGSGSGTSYSLTISSMEAEDAATYYCHQYHHSPYIYTFGGGTKLEIK
B10: KB001 mouse Fab VL S28W (Fab, V domains shown)
VH: EVQLKQSGPGLVAPSQSLSITCTVSGFSLSIYSVHWVRQPPGKGLEWLGMIWGGGSSDYNSALKSRLSISKDNSKSQVFLKMNSLQTDDTAMYYCARNGNFYAMDYWGQGTSVTVSS
VL: QIVLTQSPAIMSASLGERVTMTCTASSWVSSSFLHWYQQKPGSSPQLWIYSTSNLASGVPARFSGSGSGTSYSLTISSMEAEDAATYYCHQYHHSPYIYTFGGGTKLEIK
B11: KB001 mouse Fab VL S26D (Fab, V domains shown)
VH: EVQLKQSGPGLVAPSQSLSITCTVSGFSLSIYSVHWVRQPPGKGLEWLGMIWGGGSSDYNSALKSRLSISKDNSKSQVFLKMNSLQTDDTAMYYCARNGNFYAMDYWGQGTSVTVSS
VL: QIVLTQSPAIMSASLGERVTMTCTADSSVSSSFLHWYQQKPGSSPQLWIYSTSNLASGVPARFSGSGSGTSYSLTISSMEAEDAATYYCHQYHHSPYIYTFGGGTKLEIK
B12: KB001 mouse Fab VL S28G (Fab, V domains shown)
VH: EVQLKQSGPGLVAPSQSLSITCTVSGFSLSIYSVHWVRQPPGKGLEWLGMIWGGGSSDYNSALKSRLSISKDNSKSQVFLKMNSLQTDDTAMYYCARNGNFYAMDYWGQGTSVTVSS
VL: QIVLTQSPAIMSASLGERVTMTCTASSGVSSSFLHWYQQKPGSSPQLWIYSTSNLASGVPARFSGSGSGTSYSLTISSMEAEDAATYYCHQYHHSPYIYTFGGGTKLEIK
B13: KB001 mouse Fab VL S28P (Fab, V domains shown)
VH: EVQLKQSGPGLVAPSQSLSITCTVSGFSLSIYSVHWVRQPPGKGLEWLGMIWGGGSSDYNSALKSRLSISKDNSKSQVFLKMNSLQTDDTAMYYCARNGNFYAMDYWGQGTSVTVSS
VL: QIVLTQSPAIMSASLGERVTMTCTASSPVSSSFLHWYQQKPGSSPQLWIYSTSNLASGVPARFSGSGSGTSYSLTISSMEAEDAATYYCHQYHHSPYIYTFGGGTKLEIK
B14: KB001 mouse Fab VL A25T (Fab, V domains shown)
VH: EVQLKQSGPGLVAPSQSLSITCTVSGFSLSIYSVHWVRQPPGKGLEWLGMIWGGGSSDYNSALKSRLSISKDNSKSQVFLKMNSLQTDDTAMYYCARNGNFYAMDYWGQGTSVTVSS
VL: QIVLTQSPAIMSASLGERVTMTCTTSSSVSSSFLHWYQQKPGSSPQLWIYSTSNLASGVPARFSGSGSGTSYSLTISSMEAEDAATYYCHQYHHSPYIYTFGGGTKLEIK
B15: KB001 mouse Fab VL S26N (Fab, V domains shown)
VH: EVQLKQSGPGLVAPSQSLSITCTVSGFSLSIYSVHWVRQPPGKGLEWLGMIWGGGSSDYNSALKSRLSISKDNSKSQVFLKMNSLQTDDTAMYYCARNGNFYAMDYWGQGTSVTVSS
VL: QIVLTQSPAIMSASLGERVTMTCTANSSVSSSFLHWYQQKPGSSPQLWIYSTSNLASGVPARFSGSGSGTSYSLTISSMEAEDAATYYCHQYHHSPYIYTFGGGTKLEIK

These binders were tested against HRgpA-6H (Porphyromonas gingivalis) (UniProt P28784) (assay: ELISA, FASEBA Fab on coated HRgpA-6H).
Sequence of UniProt P28784 (P28784 228-991): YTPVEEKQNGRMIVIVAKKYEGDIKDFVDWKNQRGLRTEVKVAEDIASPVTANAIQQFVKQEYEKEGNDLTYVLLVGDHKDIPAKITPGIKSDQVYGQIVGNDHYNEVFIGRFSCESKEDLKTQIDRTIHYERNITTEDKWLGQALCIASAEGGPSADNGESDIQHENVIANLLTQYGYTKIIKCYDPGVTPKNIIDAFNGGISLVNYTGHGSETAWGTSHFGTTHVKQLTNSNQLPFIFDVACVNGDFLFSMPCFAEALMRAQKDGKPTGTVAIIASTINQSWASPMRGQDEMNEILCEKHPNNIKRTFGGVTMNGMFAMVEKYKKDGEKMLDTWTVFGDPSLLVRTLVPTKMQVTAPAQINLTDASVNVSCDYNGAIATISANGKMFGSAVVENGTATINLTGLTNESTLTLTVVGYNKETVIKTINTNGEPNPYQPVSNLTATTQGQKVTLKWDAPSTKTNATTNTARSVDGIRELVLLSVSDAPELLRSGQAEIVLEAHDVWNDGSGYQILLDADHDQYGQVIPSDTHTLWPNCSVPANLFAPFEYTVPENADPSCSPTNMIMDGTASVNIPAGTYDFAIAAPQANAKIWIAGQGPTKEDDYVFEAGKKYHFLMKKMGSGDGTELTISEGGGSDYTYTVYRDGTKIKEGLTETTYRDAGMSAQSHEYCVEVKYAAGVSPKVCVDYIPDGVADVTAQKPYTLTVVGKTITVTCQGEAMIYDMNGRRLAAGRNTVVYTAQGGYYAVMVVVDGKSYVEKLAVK

**Q.** What does the source list for B1?
**A.** OD450nm: 0.797 and 0.75; Ratio OD(Variant)/OD(WT): 1.04 and 0.975

**Q.** Which OD450nm does the source give for B2 here?
**A.** Its OD450nm is 0.852 and 0.81.

**Q.** What about the Ratio OD(Variant)/OD(WT) of the same binder?
**A.** The Ratio OD(Variant)/OD(WT) was 1.11 and 1.05.

**Q.** For B3, which OD450nm is on record?
**A.** The OD450nm was 0.783 and 0.745 and 0.697.

**Q.** And the Ratio OD(Variant)/OD(WT)?
**A.** Its Ratio OD(Variant)/OD(WT) is 1.04 and 0.993 and 0.929.

**Q.** For B4, which OD450nm is on record?
**A.** Its OD450nm is 0.795.

**Q.** What about the Ratio OD(Variant)/OD(WT) of the same binder?
**A.** The Ratio OD(Variant)/OD(WT) was 1.03.

**Q.** How did the OD450nm turn out when B5 was run?
**A.** Its OD450nm is 0.801.

**Q.** What about the Ratio OD(Variant)/OD(WT) of the same binder?
**A.** The Ratio OD(Variant)/OD(WT) was 1.07.

**Q.** For B6, which OD450nm is on record?
**A.** The OD450nm was 0.818 and 0.827 and 0.775.

**Q.** And the Ratio OD(Variant)/OD(WT)?
**A.** Its Ratio OD(Variant)/OD(WT) is 1.04 and 1.06 and 0.99.

**Q.** How did the OD450nm turn out when B7 was run?
**A.** Its OD450nm is 0.911.

**Q.** And the Ratio OD(Variant)/OD(WT)?
**A.** Its Ratio OD(Variant)/OD(WT) is 1.06.

**Q.** What does the source list for B8?
**A.** OD450nm: 0.797 and 0.734; Ratio OD(Variant)/OD(WT): 1.04 and 0.954

**Q.** What does the source list for B9?
**A.** OD450nm: 0.786 and 0.731 and 0.717; Ratio OD(Variant)/OD(WT): 1.05 and 0.974 and 0.955

**Q.** For B10, which OD450nm is on record?
**A.** Its OD450nm is 0.817 and 0.745.

**Q.** What about the Ratio OD(Variant)/OD(WT) of the same binder?
**A.** Its Ratio OD(Variant)/OD(WT) is 1.09 and 0.993.

**Q.** Which OD450nm does the source give for B11 here?
**A.** Its OD450nm is 0.821.

**Q.** What about the Ratio OD(Variant)/OD(WT) of the same binder?
**A.** Its Ratio OD(Variant)/OD(WT) is 1.05.

**Q.** Which OD450nm does the source give for B12 here?
**A.** The OD450nm was 0.818.

**Q.** What about the Ratio OD(Variant)/OD(WT) of the same binder?
**A.** Its Ratio OD(Variant)/OD(WT) is 1.09.

**Q.** With B13 as the binder, how does the OD450nm read?
**A.** Its OD450nm is 0.808 and 0.726.

**Q.** And the Ratio OD(Variant)/OD(WT)?
**A.** Its Ratio OD(Variant)/OD(WT) is 1.08 and 0.967.

**Q.** B14 was tested. Which OD450nm did it give?
**A.** Its OD450nm is 0.823 and 0.801.

**Q.** What about the Ratio OD(Variant)/OD(WT) of the same binder?
**A.** The Ratio OD(Variant)/OD(WT) was 1.05 and 1.02.

**Q.** For B15, which OD450nm is on record?
**A.** The OD450nm was 0.823 and 0.749.

**Q.** And the Ratio OD(Variant)/OD(WT)?
**A.** Its Ratio OD(Variant)/OD(WT) is 1.05 and 0.957.
